T1: Full-length cynomolgus monkey PSMA (TSC308), on cells (cynomolgus monkey, UniProt Q04609 1-750 (human entry))
T1 construct: also called cyno PSMA; CHOK1SV/cynoPSMA
T1 chain: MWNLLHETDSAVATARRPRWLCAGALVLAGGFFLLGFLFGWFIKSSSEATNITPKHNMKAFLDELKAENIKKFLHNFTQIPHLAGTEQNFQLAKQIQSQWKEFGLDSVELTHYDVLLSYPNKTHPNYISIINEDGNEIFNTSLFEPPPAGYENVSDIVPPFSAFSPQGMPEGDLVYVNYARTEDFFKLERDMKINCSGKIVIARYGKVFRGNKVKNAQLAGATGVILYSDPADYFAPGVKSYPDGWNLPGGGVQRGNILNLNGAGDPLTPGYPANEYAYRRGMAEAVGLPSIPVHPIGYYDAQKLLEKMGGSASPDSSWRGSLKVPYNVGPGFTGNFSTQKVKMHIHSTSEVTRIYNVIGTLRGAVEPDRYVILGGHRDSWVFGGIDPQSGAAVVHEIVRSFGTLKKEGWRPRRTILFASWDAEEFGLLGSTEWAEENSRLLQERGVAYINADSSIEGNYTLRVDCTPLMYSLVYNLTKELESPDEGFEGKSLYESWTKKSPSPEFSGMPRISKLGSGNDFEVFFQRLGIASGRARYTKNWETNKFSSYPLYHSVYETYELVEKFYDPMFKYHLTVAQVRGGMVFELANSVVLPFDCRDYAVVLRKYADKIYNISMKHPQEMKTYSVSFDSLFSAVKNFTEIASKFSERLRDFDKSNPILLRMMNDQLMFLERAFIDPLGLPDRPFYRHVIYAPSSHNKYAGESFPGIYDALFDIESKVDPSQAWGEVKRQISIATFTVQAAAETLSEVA


Experiments:
[1] = target: T2, Full-length Human PSMA (TSC435), on cells (human, UniProt Q04609 1-750); assay: cell binding on CHOK1SV/humanPSMA transfectants, MSD electrochemiluminescence (ECL), SULFO-TAG goat anti-human IgG
T2 construct: also called CHOK1SV/huPSMA; PSMA on C4-2B, 22RV1, LNCaP, MDA-PCa-2b cells
Method: (§1) To measure the relative binding activity of humanized PSMA-binding domain variants, constructs were tested in cell binding assays on CHOK1SV cells transfected with human or cynomolgus PSMA. The generation of CHOK1SV/huPSMA cells was described earlier; CHOK1SV/cynoPSMA cells were generated using the same method. Bivalent PSMA-binding domains variants in scFv-Fc format (constructs PSMA01019, PSMA01020, PSMA01021, PSMA01023, PSMA01024 and PSMA01025) were tested in these assays.
(§2) Binding studies on CHOK1SV transfectants were performed in live cell-based ELISA using electrochemiluminescence (Meso Scale Discovery). CHOK1SV cells were washed and seeded at 50,000 cells/well in 1× Hank's Balanced Salt Solution (HBSS) on 96-well Multi-Array High Bind plates (Meso Scale Discovery) and incubated at 37° C. for one hour. Following a blocking step in PBS buffer with 20% FBS, serial dilutions of PSMA-binding constructs (from 0.002 to 100 nM) were added in PBS buffer with 10% FBS and incubated at room temperature for one hour. Plates were washed with PBS and the specific binding levels were detected by SULFO TAG-labeled goat anti-human IgG antibody (Meso Scale Discovery #R32AJ). Following an hour incubation and wash steps, 150 μL/well surfactant free 1× Read Buffer T were added and samples were analyzed on MSD Sector Imager (Meso Scale Discovery). Resulting electrochemiluminescence (ECL) values versus concentrations were plotted and nonlinear regression analysis to determine EC50 values was performed in GraphPad Prism 7® graphing and statistics software.

[2] = target: T1, Full-length cynomolgus monkey PSMA …; assay: cell binding on CHOK1SV/cynoPSMA transfectants, MSD electrochemiluminescence (ECL), SULFO-TAG goat anti-human IgG
Method: as §1, §2

[3] = target: T3, Human PSMA ECD-AFH (TSC033), recombinant dimeric PSMA ECD (human, UniProt Q04609 44-750); assay: SPR (Biacore T200), scFv-Fc captured on anti-human IgG, dimeric PSMA ECD as analyte, 1:1 fit
T3 construct: SEC-purified dimer; also called HuPSMA-AFH; Avi-His-Human PSMA ECD
T3 sequence (Q04609 other isoform, or with tags, fused parts or gaps): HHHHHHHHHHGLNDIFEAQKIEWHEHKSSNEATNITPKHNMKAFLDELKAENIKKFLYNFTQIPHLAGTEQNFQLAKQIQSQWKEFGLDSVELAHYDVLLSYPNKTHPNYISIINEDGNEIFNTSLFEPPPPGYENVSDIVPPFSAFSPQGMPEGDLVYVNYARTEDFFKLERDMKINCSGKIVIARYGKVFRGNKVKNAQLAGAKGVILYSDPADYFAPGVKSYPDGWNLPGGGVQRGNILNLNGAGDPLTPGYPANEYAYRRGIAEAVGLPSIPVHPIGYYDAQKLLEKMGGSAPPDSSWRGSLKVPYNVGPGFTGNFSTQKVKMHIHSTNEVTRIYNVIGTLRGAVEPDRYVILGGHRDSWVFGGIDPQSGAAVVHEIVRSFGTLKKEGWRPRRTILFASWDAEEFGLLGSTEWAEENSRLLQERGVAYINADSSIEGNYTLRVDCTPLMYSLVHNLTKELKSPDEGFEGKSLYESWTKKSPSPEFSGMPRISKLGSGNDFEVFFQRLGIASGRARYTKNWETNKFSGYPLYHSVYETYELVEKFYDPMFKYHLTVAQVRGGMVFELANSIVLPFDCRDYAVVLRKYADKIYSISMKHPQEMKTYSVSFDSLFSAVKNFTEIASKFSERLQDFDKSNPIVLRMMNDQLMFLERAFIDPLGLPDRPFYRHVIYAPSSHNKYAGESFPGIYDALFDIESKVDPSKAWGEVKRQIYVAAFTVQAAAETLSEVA
Method: Mouse anti-human IgG (GE, BR-1008-39) at 25 μg/ml in 10 mM sodium acetate pH 5.0 was immobilized at a density of ˜2,000-4,000 response units (RU) onto each flow cell of a CM5 research-grade sensor chip (GE) by standard amine coupling chemistry. Each anti-PSMA protein at approximately 40 nM in dPBS with 0.2% BSA buffer was captured in a flow cell with the immobilized anti-human IgG at a flow rate of […] for up to 30 seconds, leaving one flow cell surface unmodified as the reference. Using a multi-cycle kinetics mode, a buffer blank and […] different concentrations of ECD ranging from 1 nM to 243 nM were sequentially injected through each flow cell at 30 μL/min with association times varying from 300-600 seconds and dissociation times varying from 600-1200 seconds. Regeneration was achieved by injection of 3 M MgCl₂ at a flow rate of 30 μL/min for up to 40 seconds followed by dPBS with 0.2% BSA buffer stabilization for 1 min.
Sensorgrams obtained from kinetic SPR measurements were analyzed using the double subtraction method. The signal from the reference flow cell was subtracted from the analyte binding response obtained from flow cells with captured ligands. The buffer blank response was then subtracted from analyte binding responses and the final double-referenced data were analyzed with Biacore T200 Evaluation software (2.0, GE), globally fitting data to derive kinetic parameters. All sensorgrams were fitted using a simple one-to-one binding model.

EC50 [1]	EC50 [2]	Kd [3]	koff [3]	kon [3]	Binder
1 nM	5 nM	40 nM	0.00018 s⁻¹	4500 M⁻¹ s⁻¹	PSMA01023 Anti PSMA scFv-Fc (Fc fusion, Monospecific, bivalent scFv-Fc, VL-VH; Contains germlining set G11) DIQMTQSPSTLSASVGDRVTITCRASKSISKYLAWYQQKPGKAPKLLIHSGSSLESGVPSRFSGSGSGTEFTLTISSLQPDDFATYYCQQHIEYPWTFGQGTKVEIKGGGGSGGGGSGGGGSGGGGSQVQLVQSGAEVKKPGASVKVSCKASGYTFTDYYMHWVRQAPGQGLEWMGYFNPYNDYTRYAQKFQGRVTMTRDTSTSTVYMELSSLRSEDTAVYYCARSDGYYDAMDYWGQGTTVTVSSSEPKSSDKTHTCPPCPAPEAAGAPSVFLFPPKPKDTLMISRTPEVTCVVVDVSHEDPEVKFNWYVDGVEVHNAKTKPREEQYNSTYRVVSVLTVLHQDWLNGKEYKCAVSNKALPAPIEKTISKAKGQPREPQVYTLPPSRDELTKNQVSLTCLVKGFYPSDIAVEWESNGQPENNYKTTPPVLDSDGSFFLYSKLTVDKSRWQQGNVFSCSVMHEALHNHYTQKSLSLSPGK
2 nM	6 nM	18 nM	0.00017 s⁻¹	9400 M⁻¹ s⁻¹	PSMA01021 Anti-PSMA scFv-Fc (Fc fusion, Monospecific, bivalent scFv-Fc, VL-VH) DVQITQSPSTLSASVGDRVTITCRASKSISKYLAWYQQKPGKAPKLLIHSGSSLESGVPSRFSGSGSGTEFTLTISSLQPDDFATYYCQQHIEYPWTFGQGTKVEIKGGGGSGGGGSGGGGSGGGGSQVQLVQSGAEVKKPGASVKVSCKASGYTFTDYYMHWVRQAPGQGLEWMGYFNPYNDYTRYAQKFQGRVTMTRDTSISTAYMELSSLRSDDTAVYYCARSDGYYDAMDYWGQGTTVTVSSSEPKSSDKTHTCPPCPAPEAAGAPSVFLFPPKPKDTLMISRTPEVTCVVVDVSHEDPEVKFNWYVDGVEVHNAKTKPREEQYNSTYRVVSVLTVLHQDWLNGKEYKCAVSNKALPAPIEKTISKAKGQPREPQVYTLPPSRDELTKNQVSLTCLVKGFYPSDIAVEWESNGQPENNYKTTPPVLDSDGSFFLYSKLTVDKSRWQQGNVFSCSVMHEALHNHYTQKSLSLSPGK
12 nM	9 nM	299 nM	0.0026 s⁻¹	8500 M⁻¹ s⁻¹	PSMA01024 Anti-PSMA scFv-Fc (Fc fusion, Monospecific, bivalent scFv-Fc, VL-VH) DVQITQSPSTLSASVGDRVTITCRASKSISKYLAWYQQKPGKAPKLLIHSGSSLESGVPSRFSGSGSGTEFTLTISSLQPDDFATYYCQQHIEYPWTFGQGTKVEIKGGGGSGGGGSGGGGSGGGGSQVQLVQSGAEVKKPGASVKVSCKASGYTFTDYYMHWVRQAPGQGLEWMGIFNPYNDYTSYAQKFQGRVTMTRDTSTSTVYMELSSLRSEDTAVYYCARSDGYYDAMDYWGQGTTVTVSSSEPKSSDKTHTCPPCPAPEAAGAPSVFLFPPKPKDTLMISRTPEVTCVVVDVSHEDPEVKFNWYVDGVEVHNAKTKPREEQYNSTYRVVSVLTVLHQDWLNGKEYKCAVSNKALPAPIEKTISKAKGQPREPQVYTLPPSRDELTKNQVSLTCLVKGFYPSDIAVEWESNGQPENNYKTTPPVLDSDGSFFLYSKLTVDKSRWQQGNVFSCSVMHEALHNHYTQKSLSLSPGK
6 nM	8 nM	40 nM	0.0011 s⁻¹	27000 M⁻¹ s⁻¹	PSMA01012 Anti-PSMA scFv-Fc (Fc fusion, Monospecific, bivalent scFv-Fc, scFv in VL-VH orientation; also called parent construct) DIQMTQSPSAMSASVGDRVTITCRASKSISKYLAWFQQKPGKVPKLRIHSGSTLQSGVPSRFSGSGSGTEFTLTISSLQPEDFATYYCQQHIEYPWTFGQGTKVEIKRGGGGSGGGGSGGGGSQVQLVQSGAEVKKPGASVKVSCKASGYTFTDYYMHWVRQAPGQGLEWMGYFNPYNDYTRYAQKFQGRVTMTRDTSISTAYMELSSLRSDDTAVYYCARSDGYYDAMDYWGQGTTVTVSSSEPKSSDKTHTCPPCPAPEAAGAPSVFLFPPKPKDTLMISRTPEVTCVVVDVSHEDPEVKFNWYVDGVEVHNAKTKPREEQYNSTYRVVSVLTVLHQDWLNGKEYKCAVSNKALPAPIEKTISKAKGQPREPQVYTLPPSRDELTKNQVSLTCLVKGFYPSDIAVEWESNGQPENNYKTTPPVLDSDGSFFLYSKLTVDKSRWQQGNVFSCSVMHEALHNHYTQKSLSLSPGK
